Columns and labels:
[1] = system: LARP1 DM15 E886 mutant (Homo sapiens), Q6PKG0-3; test: EMSA; conditions: 5' m7Gppp cap; Competition assays: 20 mM Tris pH 8, 150 mM NaCl, 10% glycerol, 1 mM DTT, 0.5 ug BSA, 0.5 ug tRNA, 30 min on ice, native gel; EMSA as in Lahr et al. 2015 with …
[2] = system: LARP1 DM15 Y922 mutant (Homo sapiens), Q6PKG0-3; test: EMSA; conditions: 5' m7Gppp cap; Competition assays: 20 mM Tris pH 8, 150 mM NaCl, 10% glycerol, 1 mM DTT, 0.5 ug BSA, 0.5 ug tRNA, 30 min on ice, native gel; EMSA as in Lahr et al. 2015 with …

Sequence: CCUCUUUUCCGUGGCGCCUCGGAGGCGUUCAGCUGCUUCAAG [m7Gppp-RPS6 42mer (capped TOP)]
- Kd [1]: 8 µM
- Kd [2]: 2.6 µM
